{"source": "patent US7193044B1", "about": "“Compounds and methods for regulating apoptosis, and methods of making and screening for compounds that regulate apoptosis” (Immunogen, Inc., priority 2000, dated 2007)", "key": {"GST-Bcl-XL": {"molecular_target": "GST-Bcl-XL (Homo sapiens, UniProt Q07817)", "sequence (Q07817 whole entry)": "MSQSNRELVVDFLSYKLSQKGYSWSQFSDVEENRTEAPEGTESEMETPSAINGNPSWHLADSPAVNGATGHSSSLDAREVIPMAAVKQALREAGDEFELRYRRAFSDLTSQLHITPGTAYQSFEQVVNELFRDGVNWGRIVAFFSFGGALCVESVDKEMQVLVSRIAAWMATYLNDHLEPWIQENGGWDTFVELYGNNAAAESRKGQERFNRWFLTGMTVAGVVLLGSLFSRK", "experiment": "GST-Bcl-XL binding (glutathione bead pull-down) of BAD", "details": "35S-labeled in vitro translated full-length protein incubated with PKA and ATP", "experimental": "In order to test whether the additional and novel phosphorylation site on BAD has functional significance, the effect on BAD binding to Bcl-XL was examined. Recombinant Bcl-XL tagged with the glutathione S-transferase (“GST”) moiety (“GST-Bcl-XL”) was incubated with WCL prepared from COS-7 cells expressing the double mutant HA-BAD S112A/S136A, and the HA-BAD S112A/S136A that bound to the GST-Bcl-XL was precipitated with GST beads. […] No HA-BAD S112A/S136A was precipitated with GST beads from the WCL that were not incubated with GST-Bcl-XL (FIG. 1, lane 4).\nThe ability of full-length BAD and mutant BAD S155A to bind Bcl-XL was also determined (FIG. 3(c)). Full-length BAD (“WT”) and mutant BAD S155A (“S155A”) were produced by in vitro translation and labeled with ^35S-methionine therein. […] Proteins bound to the beads (“Bound”) (lower panel) and samples of the reactions collected prior to incubation with the beads (“Total”) (upper panel) were analyzed by SDS-PAGE followed by autoradiography.\nFor Bcl-XL binding studies, GST-Bcl-XL (1 mg/ml final concentration) was added to cell lysates derived from BAD expressing cells, and incubated with rotation for two hours at 4° C. […] The beads were then washed with RIPA buffer, the proteins were separated by SDS-PAGE and associated BAD detected by probing the blot with anti-HA antibody."}, "[1]": {"system": "BAD Ser155 phosphorylation in HeLa cells", "experiment": "BAD phosphorylation in HeLa cells (western blot band-shift / anti-phospho-Ser155 antibody)", "type": "cell-based, human", "details": "HeLa cells", "experimental": "A mammalian expression vector encoding mutant HA-BAD S155A, derived from the shorter murine BAD of SEQ ID NO:3, was constructed. HA-BAD S155A has an amino acid sequence wherein the serine at a position corresponding to Ser155 is substituted with alanine. A western blot was performed on WCL prepared from cells expressing the shorter murine BAD (SEQ ID NO:3), HA-BAD S112A, HA-BAD S136A, or HA-BAD S155A, and probed with anti-HA antibody.\nA western blot analysis, probed with anti-HA antibody, was performed on lysates produced from the Forskolin treated and untreated (control) cells to determine whether Forskolin could induce the phosphorylation BAD or mutant BAD.\nHeLa cells transiently expressing HA-BAD, HA-BAD S155A, HA-BAD S112A/S136A, or HA-BAD S112A/S136A/S155A were treated with Forskolin or a buffer control.\nThe HA-BAD S112A/S136A double mutant was transiently expressed in HeLa cells, and transfected cell cultures were treated with each of the GPCR ligands, individually and as a group. A western blot analysis, probed with anti-HA antibody, was performed on lysates produced from the treated and untreated (negative control) cells. […] Forskolin (FK) and no treatment (−) were positive and negative controls, respectively (FIG. 6(a), […], respectively).\nNon-transfected HeLa cells were treated with Forskolin or L-epinephrine, followed by western blot analysis of cell lysates using anti-BAD antibodies.\nTransformants were treated with L-epinephrine, then lysed and subjected to anti-HA western blot analysis.\nTo further test whether phosphorylation of Ser155 is dependent on the PI 3-kinase/Akt pathway, HeLa cells were transfected with the mutant HA-BAD S155A and pretreated with Wortmannin, an inhibitor of PI 3-kinase. These cells were then stimulated with epidermal growth factor (EGF), lysed and analyzed by western blot analysis.\nFor immunoprecipitation of all HA-BAD species, 1 μg of the anti-HA antibody was added to the cell lysates, and incubated at 4° C. for one hour. Protein G agarose (Pierce) was then added (50 μl/fraction of 50% slurry) and followed by a one hour incubation at 4° C. Beads were washed with RIPA buffer, boiled in loading buffer (2% SDS, 10% glycerol, 5% β-ME, 60 mM Tris, pH 6.8, 0.002% Bromophenol Blue) and loaded onto polyacrylamide gels. After electrophoresis, proteins were transferred to nitrocellulose membranes, and blots blocked in western wash buffer (40 mM Tris, pH 8.0, 150 mM NaCl, 0.2% NP-40) with 5% BSA for one hour at room temperature. Blots were incubated with primary antibody diluted in western wash buffer with 3% BSA at room temperature for 1–2 hours, washed with western wash buffer and incubated with secondary HRP-coupled antibody diluted in western wash buffer with 1.5% BSA, and washed extensively. Polypeptides were detected with the ECL chemiluminescence according to the manufacturers instructions (Amersham)."}, "[2]": {"molecular_target": "T1, PKA (catalytic subunit from bovine heart) (Bos taurus, UniProt P00517)", "T1 construct": "11 units PKA (catalytic subunit from bovine heart, Calbiochem); purchased Calbiochem; host or cells: bovine heart", "experiment": "In vitro kinase assay, phosphorylation of BAD and BAD mutants by PKA", "type": "biochemical", "details": "35S-labeled in vitro translated protein", "experimental": "The ability of full-length BAD and mutant BAD S155A to bind Bcl-XL was also determined (FIG. 3(c)). Full-length BAD (“WT”) and mutant BAD S155A (“S155A”) were produced by in vitro translation and labeled with ^35S-methionine therein. The labeled proteins were then incubated with PKA (“+”) in the presence of unlabeled ATP or a buffer control (“−”). Following the kinase reactions, aliquots of each sample of the four samples were incubated with either GST or GST-Bcl-XL. The protein complex were captured on glutathione-agarose beads. Proteins bound to the beads (“Bound”) (lower panel) and samples of the reactions collected prior to incubation with the beads (“Total”) (upper panel) were analyzed by SDS-PAGE followed by autoradiography.\nThe GST-tagged BAD and BAD mutants were then expressed individually in cells and the purified GST-tagged polypeptides incubated with purified PKA, in the presence of ^32P radiolabel. A western blot, probed with anti-BAD antibody, was performed on the incubated GST-tagged BAD and BAD mutants to determine whether PKA could phosphorylate the BAD and/or mutant BAD in vitro. The GST-tagged BAD and BAD mutants phosphorylated by PKA could be detected directly by autoradiography due to the incorporation of ^32P radiolabel when the polypeptides were phosphorylated (FIG. 4, upper panel), whereas the total amount of BAD and mutant BAD present in the in vitro reaction was detected by the anti-BAD antibody probe (FIG. 4, lower panel).\nIn vitro kinase assays were carried out in 30 μl volumes containing 10 mM HEPES buffer, pH 7.5, 100 mM NaCl, 12 mM MgCl2, 1 mM dithiothreitol, […] γ^32P-ATP ([…], NEN), 11 units PKA (catalytic subunit from bovine heart, Calbiochem), and 1 μg purified GST-BAD. Reactions were incubated for 30 min at 30° C. and terminated by the addition of SDS-PAGE sample buffer. Samples were run on a 4–20% SDS-PAGE gel (Novex), transferred to a nitrocellulose membrane and phosphorylated GST-BAD was visualized by autoradiography. To verify that equal amounts of GST-BAD substrates were used, the nitrocellulose was subjected to western blot analysis with 133 ng/ml anti-BAD antibody (C-20)."}, "HeLa cells": {"system": "HeLa cells", "experiment": "Beta-gal ELISA apoptosis assay in transfected HeLa cells", "type": "cell-based, human", "details": "in the presence of Forskolin after 24 hours", "experimental": "Because BAD Ser155 phosphorylation, like Ser136 phosphorylation, prevents BAD from binding to Bcl-XL (FIG. 1), it was possible that by analogy, Ser155 dephosphorylation promotes cell death. To test this idea, HeLa cells were co-transfected with BAD or various BAD serine mutants and a β-gal reporter plasmid. Twenty-four hours post-transfection, cell viability was analyzed by β-gal ELISA.\nTo test this idea, HeLa cells were again co-transfected with BAD or various BAD serine mutants and a β-gal reporter plasmid. Forskolin was then added to half of the cultures while the other half was left untreated. Beta-gal ELISAs were performed 24 hours post transfection. […] Thus, phosphorylation of Ser155 rescues cells from BAD-induced apoptosis, while substitution of Ser155 with a nonphosphorylatable residue results in increased cell death and the failure of cells to be protected from induced PKA activity.\nBeta-gal ELISA assays were performed using the β-gal ELISA system from Boehringer Mannheim, according to manufacture's instructions. Cells were transfected with BAD (or BAD mutant) and β-gal in a ratio of 5:1. The transfected cells were trypsinized and distributed into 96-well tissue culture plates. Twenty-four hours after transfection, cell extracts were obtained by lysing the cells in lysis buffer. Cell extracts (200 μl) were then added to anti-β-gal-coated microtiter plates (MTP). The MTPs were foil-covered and incubated for one hour at 37° C. Solutions were then decanted and the MTPs were washed, followed by the addition of 200 μl of anti-β-gal-DIG working solution, and incubation for an additional hour as described above. Solutions were again decanted, the MTPs washed and 200 μl of DIG-POD working solution were added. The MTPs were incubated for another hour at 37° C., the solution decanted, and the wells washed. 200 μl of substrate with enhancer were added to each well and incubated at room temperature until color development. The β-gal activity was measured by the absorbance of the sample at […]. Data were based on triplicate wells with standard deviations calculated."}}, "data": [{"molecule": "wild-type BAD: shorter murine BAD of SEQ ID NO:3 (162 aa), used untagged, HA-tagged or GST-tagged (protein, listed as Mus musculus, optional HA or GST tag) MFQIPEFEPSEQEDASATDRGLGPSLTEDQPGPYLAPGLLGSNIHQQGRAATNSHHGGAGAMETRSRHSSYPAGTEEDEGMEEELSPFRGRSRSAPPNLWAAQRYGRELRRMSDEFEGSFKGLPRPKSAGTATQMRQSAGWTRIIQSWWDRNLGKGGSTPSQ", "values": [{"measurement": "binding to GST-Bcl-XL after phosphorylation by PKA", "setting": "GST-Bcl-XL", "result": "blocked the ability of BAD to bind to Bcl-XL"}, {"measurement": "band-shift (phosphorylation) of expressed BAD construct in response to L-epinephrine", "setting": "[1]", "result": "significant band-shift"}, {"measurement": "gel-mobility shift induced by phosphorylation by PKA", "setting": "[2]", "result": "induced a gel-mobility shift"}, {"measurement": "more cells surviving transient expression than with the BAD S155A mutant", "setting": "HeLa cells", "result": "Approximately 50%"}]}]}
